Data from publication PMC10397247.

Assays:
4H452-AA = biological target: T1, 4H452-AA; assay: two-hybrid library CCmax; conditions: mean of both orientations;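 note: natural log of median RNA to DNA barcode read ratio; higher means stronger binding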
T1 chain: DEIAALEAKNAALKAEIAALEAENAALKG

4H_GCN4 = assay: two-hybrid library CCmax;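 note: natural log of median RNA to DNA barcode read ratio; higher means stronger binding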
4H1930-AA = biological target: T2, 4H1930-AA; assay: two-hybrid library CCmax;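 note: natural log of median RNA to DNA barcode read ratio; higher means stronger binding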
T2 chain: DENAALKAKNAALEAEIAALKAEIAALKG

GCN2_T = assay: two-hybrid library CCmax;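 note: natural log of median RNA to DNA barcode read ratio; higher means stronger binding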
4H406-AA = biological target: T3, 4H406-AA; assay: two-hybrid library CCmax; conditions: mean of both orientations;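 note: natural log of median RNA to DNA barcode read ratio; higher means stronger binding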
T3 chain: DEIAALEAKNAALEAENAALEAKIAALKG

4H_APH = biological target: T4, 4H_APH; assay: two-hybrid library CCmax;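 note: natural log of median RNA to DNA barcode read ratio; higher means stronger binding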
T4 chain: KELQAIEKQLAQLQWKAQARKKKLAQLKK

4H2592-AA = biological target: T5, 4H2592-AA; assay: two-hybrid library CCmax; conditions: mean of both orientations
T5 chain: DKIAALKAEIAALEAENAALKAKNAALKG

4H_BCR = biological target: T6, 4H_BCR; assay: two-hybrid library CCmax; conditions: mean of both orientations
T6 chain: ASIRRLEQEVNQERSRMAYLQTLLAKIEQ

4H347-AA = biological target: T7, 4H347-AA; assay: two-hybrid library CCmax; conditions: mean of both orientations
T7 chain: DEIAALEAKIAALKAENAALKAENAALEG

4H2253-AA = biological target: T8, 4H2253-AA; assay: two-hybrid library CCmax; conditions: mean of both orientations
T8 chain: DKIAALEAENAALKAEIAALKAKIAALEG

4H2931-AA = biological target: T9, 4H2931-AA; assay: two-hybrid library CCmax; conditions: mean of both orientations
T9 chain: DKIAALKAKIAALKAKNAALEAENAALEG

4H2512-AA = biological target: T10, 4H2512-AA; assay: two-hybrid library CCmax
T10 chain: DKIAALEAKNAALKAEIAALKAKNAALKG

4H2466-AA = biological target: T11, 4H2466-AA; assay: two-hybrid library CCmax; conditions: mean of both orientations
T11 chain: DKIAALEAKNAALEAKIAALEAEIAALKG

4H3073-AA = biological target: T12, 4H3073-AA; assay: two-hybrid library CCmax; conditions: mean of both orientations
T12 chain: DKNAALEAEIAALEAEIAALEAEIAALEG

4H2774-AA = biological target: T13, 4H2774-AA; assay: two-hybrid library CCmax; conditions: mean of both orientations
T13 chain: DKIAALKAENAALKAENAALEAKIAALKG

4H56-AA = biological target: T14, 4H56-AA; assay: two-hybrid library CCmax; conditions: mean of both orientations
T14 chain: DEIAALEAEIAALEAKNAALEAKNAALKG

4H2330-AA = biological target: T15, 4H2330-AA; assay: two-hybrid library CCmax; conditions: mean of both orientations
T15 chain: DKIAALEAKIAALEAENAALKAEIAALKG

4H3001-AA = biological target: T16, 4H3001-AA; assay: two-hybrid library CCmax; conditions: mean of both orientations
T16 chain: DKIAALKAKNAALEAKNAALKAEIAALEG

4H2343-AA = biological target: T17, 4H2343-AA; assay: two-hybrid library CCmax; conditions: mean of both orientations
T17 chain: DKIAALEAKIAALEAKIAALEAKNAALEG

4H3015-AA = biological target: T18, 4H3015-AA; assay: two-hybrid library CCmax; conditions: mean of both orientations
T18 chain: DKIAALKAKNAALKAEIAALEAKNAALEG

4H249-AA = biological target: T19, 4H249-AA; assay: two-hybrid library CCmax; conditions: mean of both orientations
T19 chain: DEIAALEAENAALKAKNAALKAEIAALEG

4H2732-AA = biological target: T20, 4H2732-AA; assay: two-hybrid library CCmax; conditions: mean of both orientations
T20 chain: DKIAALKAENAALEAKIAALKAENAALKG

4H2165-AA = biological target: T21, 4H2165-AA; assay: two-hybrid library CCmax; conditions: mean of both orientations
T21 chain: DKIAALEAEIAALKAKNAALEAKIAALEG

4H3438-AA = biological target: T22, 4H3438-AA; assay: two-hybrid library CCmax; conditions: mean of both orientations
T22 chain: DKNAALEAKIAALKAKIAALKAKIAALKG

4H2124-AA = biological target: T23, 4H2124-AA; assay: two-hybrid library CCmax; conditions: mean of both orientations
T23 chain: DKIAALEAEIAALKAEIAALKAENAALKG

4H3613-bN = biological target: T24, 4H3613-bN; assay: two-hybrid library CCNG1
T24 chain: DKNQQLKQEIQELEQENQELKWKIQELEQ

4H3926-bN = biological target: T25, 4H3926-bN; assay: two-hybrid library CCNG1
T25 chain: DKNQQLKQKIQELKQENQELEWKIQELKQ

4H3175-bN = biological target: T26, 4H3175-bN; assay: two-hybrid library CCNG1
T26 chain: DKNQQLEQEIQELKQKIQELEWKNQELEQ

4H3277-bN = biological target: T27, 4H3277-bN; assay: two-hybrid library CCNG1
T27 chain: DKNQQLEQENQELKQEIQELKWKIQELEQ

4H918-bN = biological target: T28, 4H918-bN; assay: two-hybrid library CCNG1
T28 chain: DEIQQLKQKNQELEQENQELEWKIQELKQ

4H591-bN = biological target: T29, 4H591-bN; assay: two-hybrid library CCNG1
T29 chain: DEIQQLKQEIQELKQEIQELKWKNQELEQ

4H1985-bN = biological target: T30, 4H1985-bN; assay: two-hybrid library CCNG1
T30 chain: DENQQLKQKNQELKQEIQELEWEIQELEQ

4H3162-bN = biological target: T31, 4H3162-bN; assay: two-hybrid library CCNG1
T31 chain: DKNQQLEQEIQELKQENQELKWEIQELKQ

4H1710-bN = biological target: T32, 4H1710-bN; assay: two-hybrid library CCNG1
T32 chain: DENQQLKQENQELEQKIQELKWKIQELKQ

4H626-bN = biological target: T33, 4H626-bN; assay: two-hybrid library CCNG1
T33 chain: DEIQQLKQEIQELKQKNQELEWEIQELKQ

4H3298-bN = biological target: T34, 4H3298-bN; assay: two-hybrid library CCNG1
T34 chain: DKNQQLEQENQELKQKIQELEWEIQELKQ

4H3462-bN = biological target: T35, 4H3462-bN; assay: two-hybrid library CCNG1
T35 chain: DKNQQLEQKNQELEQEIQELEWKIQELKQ

4H3817-bN = biological target: T36, 4H3817-bN; assay: two-hybrid library CCNG1
T36 chain: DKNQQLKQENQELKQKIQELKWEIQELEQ

4H570-bN = biological target: T37, 4H570-bN; assay: two-hybrid library CCNG1
T37 chain: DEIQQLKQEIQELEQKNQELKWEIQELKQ

4H850-bN = biological target: T38, 4H850-bN; assay: two-hybrid library CCNG1
T38 chain: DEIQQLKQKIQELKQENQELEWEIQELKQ

4H1544-bN = biological target: T39, 4H1544-bN; assay: two-hybrid library CCNG1
T39 chain: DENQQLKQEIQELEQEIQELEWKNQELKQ

4H3974-bN = biological target: T40, 4H3974-bN; assay: two-hybrid library CCNG1
T40 chain: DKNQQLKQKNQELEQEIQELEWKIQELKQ

4H3858-bN = biological target: T41, 4H3858-bN; assay: two-hybrid library CCNG1
T41 chain: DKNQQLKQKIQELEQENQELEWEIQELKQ

4H3497-bN = biological target: T42, 4H3497-bN; assay: two-hybrid library CCNG1
T42 chain: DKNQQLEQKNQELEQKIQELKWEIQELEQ

4H906-bN = biological target: T43, 4H906-bN; assay: two-hybrid library CCNG1
T43 chain: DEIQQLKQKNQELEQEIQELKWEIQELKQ

4H3628-bN = biological target: T44, 4H3628-bN; assay: two-hybrid library CCNG1
T44 chain: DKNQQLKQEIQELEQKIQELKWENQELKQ

4H1899-bN = biological target: T45, 4H1899-bN; assay: two-hybrid library CCNG1
T45 chain: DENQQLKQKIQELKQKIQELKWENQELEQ

Chain of 4H_GCN4 (chain, as listed by the source): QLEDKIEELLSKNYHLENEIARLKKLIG

B1: 4H1930-AA (peptide)
chain: DENAALKAKNAALEAEIAALKAEIAALKG
interaction score (4H452-AA): -1.51
interaction score (4H_GCN4): -1.23
interaction score (4H1930-AA): 1.78
interaction score (GCN2_T): -1.22
interaction score (4H406-AA): -1.92
interaction score (4H_APH): -1.06
interaction score (4H2592-AA): -1.46
interaction score (4H_BCR): -1.93
interaction score (4H347-AA): -1.32
interaction score (4H2253-AA): -1.35
interaction score (4H2931-AA): -1.91
interaction score (4H2512-AA): -3.66
interaction score (4H2466-AA): -1.3
interaction score (4H3073-AA): -0.77
interaction score (4H2774-AA): -1.57
interaction score (4H56-AA): -2.31
interaction score (4H2330-AA): -1.7
interaction score (4H3001-AA): -1.62
interaction score (4H2343-AA): -1.34
interaction score (4H3015-AA): -1.72
interaction score (4H249-AA): -1.82
interaction score (4H2732-AA): -1.87
interaction score (4H2165-AA): -1.35
interaction score (4H3438-AA): -1.3
interaction score (4H2124-AA): -1.14

B2: 4H1544-bN (peptide)
chain: DENQQLKQEIQELEQEIQELEWKNQELKQ
interaction score (4H3613-bN): -1.07
interaction score (4H3926-bN): -0.652
interaction score (4H3175-bN): 0.167
interaction score (4H3277-bN): -0.11
interaction score (4H918-bN): -0.127
interaction score (4H591-bN): -0.583
interaction score (4H1985-bN): -0.277
interaction score (4H3162-bN): -1.96
interaction score (4H1710-bN): 1.41
interaction score (4H626-bN): -1.03
interaction score (4H3298-bN): -0.192
interaction score (4H3462-bN): 1.08
interaction score (4H3817-bN): -0.351
interaction score (4H570-bN): -0.108
interaction score (4H850-bN): 0.669
interaction score (4H1544-bN): -2.02
interaction score (4H3974-bN): -0.0151
interaction score (4H3858-bN): -0.293
interaction score (4H3497-bN): 0.211
interaction score (4H906-bN): -0.343
interaction score (4H3628-bN): 0.019
interaction score (4H1899-bN): 1.82
